Data as given in US20130109581A1, “POSITIVELY CHARGED SPECIES AS BINDING REAGENTS IN THE SEPARATION OF PROTEIN AGGREGATES FROM MONOMERS” (priority 2009, published 2013).

Molecular target: Abeta 1-40 monomer (UniProt P05067)
Assay: MPA bead capture, Abeta 1-40 read-out of the CSF sample (noise)

| Substance | average RLU (40) [RLU] |
| --- | --- |
| AAAKAA (peptide) | 134 |
| AAKKAA (peptide) | 147 |
| AAKKKA (peptide) | 159 |
| AKKKKA (peptide) | 156 |
| AKKKKK (peptide) | 176 |
| ANFFAHSS (peptide) | 543 |
| DFKLNFKF (peptide) | 260 |
